# Reference: the supplement of paper PMC10567573
# B1: GMCL1 (parent)
# chain: FCYCAGSHKRKRSSGSFCYCHPDS
# Variants of: B1
# Test: protein stability index of a GFP-peptide fusion (GPS, HEK-293T) (PSI 1-6); higher = more stable
# Settings: c terminus: a fixed tail appended
# 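Further: lentivirally expressed fusions sorted by FACS into six bins by GFP to DsRed ratio, PSI derived from sequencing read proportions per bin multiplied by bin number.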
row,Variant,protein stability index
1,S14N,2.37
2,S14I,1.64
3,S14R,2.02
4,S14T,1.46
5,S14Y,2.07
6,S14M,2.04
7,S14G,1.89
8,S14V,1.89
9,S14W,2.03
10,S14L,2.6
11,S14Q,1.89
12,S14D,2.18
13,S14F,2.35
14,S14C,1.86
15,S14P,1.93
16,S14A,2.2
17,S14H,2.79
18,S14E,1.87
19,S14K,1.61
20,C18Q,2.63
21,C18G,2.18
22,C18W,2.99
23,C18N,2.2
24,C18T,1.79

row,Variant,protein stability index
1,C18D,1.87
2,C18A,2.74
3,C18Y,1.14
4,C18V,1.83
5,C18I,2.27
6,C18M,2.11
7,C18P,2.1
8,C18S,2.65
9,C18R,1.63
10,C18K,1.95
11,C18H,1.77
12,C18L,2.4
13,C18E,2.74
14,G6D,1.91
15,G6L,2.44
16,G6Y,2.59
17,G6N,2.92
18,G6H,1.94
19,G6I,1.54
20,G6F,1.92
21,G6S,2.39
22,G6R,2.05
23,G6C,2.53
24,G6P,1.34

row,Variant,protein stability index
1,G6M,2.48
2,G6V,2.68
3,G6K,1.5
4,G6W,2.84
5,G6E,1.86
6,G6T,1.55
7,G6Q,2
8,G15R,1.62
9,G15C,1.5
10,G15A,1.61
11,G15I,2.41
12,G15S,2.17
13,G15W,2.26
14,G15N,2.81
15,G15F,1.8
16,G15L,3.16
17,G15M,1.21
18,G15V,2.6
19,G15D,2.25
20,G15E,2.67
21,G15P,1.6
22,G15T,1.96
23,G15Y,2.56
24,G15H,2.07

row,Variant,protein stability index
1,G15K,1.72
2,H8E,2.1
3,H8I,1.48
4,H8G,2.88
5,H8W,2.59
6,H8L,1.1
7,H8P,1.94
8,H8K,1.99
9,H8C,2.37
10,H8M,1.66
11,H8F,1.97
12,H8N,2.19
13,H8Q,1.43
14,H8R,1.9
15,H8Y,2.57
16,H8T,1.67
17,H8S,2.33
18,H8V,1.89
19,H8D,1.67
20,Y19W,1.28
21,Y19E,3.63
22,Y19L,1.96
23,Y19I,2.52
24,Y19N,3.38

row,Variant,protein stability index
1,Y19Q,3.03
2,Y19S,3.31
3,Y19D,2.9
4,Y19G,2.52
5,Y19T,3.6
6,Y19K,3.4
7,Y19M,3
8,Y19A,3.72
9,Y19V,3.03
10,Y19R,3.17
11,Y19H,2.67
12,Y19P,3.37
13,Y19F,2.31
14,Y19C,2.86
15,C4Q,1.01
16,C4V,2.27
17,C4P,1.53
18,C4R,1.36
19,C4T,2.06
20,C4W,2.56
21,C4S,2.55
22,C4N,2.26
23,C4M,2.52
24,C20Q,1.5

row,Variant,protein stability index
1,C20V,1.91
2,C20D,2.73
3,C20W,1.95
4,C20I,2.06
5,C20K,1.58
6,C20H,2
7,C20L,2.18
8,C20A,2.01
9,C20M,2.3
10,C20G,1.99
11,C20P,1.94
12,C20S,1.5
13,C20T,1.98
14,C20E,1.88
15,C20N,1.99
16,C20R,1.68
17,C20F,1.84
18,C20Y,1.71
19,P22G,2.44
20,P22C,2.12
21,P22I,1.47
22,P22D,2.78
23,P22H,2.29
24,P22F,1.38

row,Variant,protein stability index
1,P22A,2.64
2,P22E,2.01
3,K11A,1.59
4,K11G,1.97
5,K11W,2.03
6,K11I,2.92
7,K11T,2.22
8,K11Y,2.95
9,K11Q,1.33
10,K11C,1.77
11,K11H,2.18
12,K11D,2.45
13,K11S,2.85
14,K11P,2.31
15,K11R,1.98
16,K11N,1.93
17,K11M,2.29
18,K11F,1.68
19,K11V,1.39
20,K11L,2.41
21,K11E,1.87
22,A5L,1.57
23,A5I,3.03
24,A5C,1.65

row,Variant,protein stability index
1,A5Y,1.89
2,A5N,2.03
3,A5W,2.26
4,A5D,2.38
5,A5S,2
6,A5Q,1.94
7,A5T,1.38
8,A5E,2.33
9,A5H,2.26
10,A5M,1.88
11,A5V,2.67
12,A5R,1.85
13,A5P,2.58
14,A5K,2.53
15,A5F,2.37
16,A5G,1.5
17,S13K,1.96
18,S13F,2.24
19,S13D,2.74
20,S13Q,1.7
21,S13V,1.86
22,S13I,1.88
23,S13L,2.5
24,S13N,1.64

row,Variant,protein stability index
1,S13Y,1.7
2,S13R,1.85
3,S13A,1.95
4,S13W,1.84
5,S13H,2.21
6,S13E,2.02
7,S13C,2.17
8,S13T,2.11
9,S13P,2.67
10,S13M,2.04
11,S13G,1.56
12,S7M,1.98
13,S7D,1.55
14,S7P,1.7
15,S7G,1.02
16,S7L,1.89
17,S7W,1.9
18,S7F,2.54
19,S7E,2.2
20,S7R,2.34
21,S7I,1.75
22,S7N,2.16
23,S7Y,1.59
24,S7V,1.93

row,Variant,protein stability index
1,S7C,2.1
2,S7A,2.15
3,S7T,2.98
4,S7H,1.59
5,S7Q,1.77
6,S7K,2.29
7,H21A,2.41
8,H21K,3.17
9,H21W,1.63
10,H21V,2.51
11,H21N,2.43
12,H21P,2.21
13,H21C,1.11
14,H21R,2.54
15,H21L,2.88
16,H21Q,2.74
17,H21Y,2.43
18,H21T,2.47
19,H21I,2.69
20,H21E,2.73
21,H21S,2.87
22,H21G,2.55
23,H21D,2.47
24,H21F,2.51

row,Variant,protein stability index
1,H21M,3.12
2,R12F,1.64
3,R12W,2.9
4,R12P,2.44
5,R12T,2.43
6,R12G,1.38
7,R12A,2.04
8,R12K,1.97
9,R12I,1.75
10,R12E,1.15
11,R12S,1.74
12,R12M,1.54
13,R12H,1.96
14,R12N,2.01
15,R12C,1.85
16,R12L,1.63
17,R12D,2.06
18,R12V,1.89
19,R12Q,2.33
20,R12Y,2.56
21,K9M,1.77
22,K9N,2.05
23,K9Q,2.01
24,K9W,2.62

row,Variant,protein stability index
1,K9C,2
2,K9F,2.13
3,K9G,1.57
4,K9P,1.52
5,K9D,1.99
6,K9R,1.61
7,K9T,1.29
8,K9S,2.76
9,K9A,1.63
10,K9Y,2.8
11,K9I,1.94
12,K9E,2.14
13,K9H,1.86
14,K9L,1.99
15,K9V,2.57
16,R10L,1.99
17,R10F,1.4
18,R10G,2.27
19,R10N,2.24
20,R10W,1.92
21,R10K,1.96
22,R10V,1.81
23,R10I,2.32
24,R10E,2.5

row,Variant,protein stability index
1,R10M,1.9
2,R10T,2.27
3,R10D,2.02
4,R10H,1.68
5,R10P,1.9
6,R10Q,2.29
7,R10Y,1.85
8,R10A,2.48
9,R10S,1.82
10,F17G,2.19
11,F17C,3.2
12,F17D,2.84
13,F17P,2.98
14,F17A,2.11
15,F17Q,2.61
16,F17M,2.15
17,F17K,2.17
18,F17R,2.53
19,F17W,1.9
20,F17N,2.06
21,F17L,2.3
22,F17E,3.01
23,F17T,2.27
24,F17S,1.78

row,Variant,protein stability index
1,F17V,2.04
2,F17H,2.46
3,F17Y,2.25
4,F17I,2.05
5,S16Q,1.69
6,S16P,1.36
7,S16R,1.59
8,S16I,2.49
9,S16E,3.31
10,S16N,1.36
11,S16Y,2.14
12,S16F,2.41
13,S16K,3.24
14,S16H,2
15,S16D,1.88
16,S16A,2.33
17,S16V,2.16
18,S16M,2.44
19,S16L,1.26
20,S16C,1.91
21,S16W,2.06
22,S16T,2.29
